From the supplement of paper PMC11246515
± gives the standard deviation of the averaged measurements.

Experiment: total protein half-life in vivo (active degradation + dilution); higher = more stable protein
[1] = E. coli NCM3722 delta-clpP delta-lon delta-hslV, growth: N-lim chemostat, doubling time 6 h
[2] = E. coli NCM3722 delta-clpP, growth: N-lim chemostat, doubling time 6 h
[3] = E. coli NCM3722 delta-hslV, growth: N-lim chemostat, doubling time 6 h
[4] = E. coli NCM3722 delta-lon, growth: N-lim chemostat, doubling time 6 h
[5] = E. coli NCM3722 delta-smpB, growth: N-lim chemostat, doubling time 6 h
[6] = wild type E. coli NCM3722, growth: C-lim chemostat, doubling time 3 h
[7] = wild type E. coli NCM3722, growth: C-lim chemostat, doubling time 6 h
[8] = wild type E. coli NCM3722, growth: C-lim chemostat, doubling time 12 h
[9] = wild type E. coli NCM3722, growth: N-lim chemostat, doubling time 6 h
[10] = wild type E. coli NCM3722, growth: N-lim chemostat, doubling time 12 h
[11] = wild type E. coli NCM3722, growth: P-lim chemostat, doubling time 6 h
[12] = wild type E. coli NCM3722, growth: P-lim chemostat, doubling time 12 h

Row | Sequence | total protein half-life in vivo [1] | total protein half-life in vivo [2] | total protein half-life in vivo [3] | total protein half-life in vivo [4] | total protein half-life in vivo [5] | total protein half-life in vivo [6] | total protein half-life in vivo [7] | total protein half-life in vivo [8] | total protein half-life in vivo [9] | total protein half-life in vivo [10] | total protein half-life in vivo [11] | total protein half-life in vivo [12]
1 | MSKLLDRFRYFKQKGETFADGHGQVMHSNRDWEDSYRQRWQFDKIVRSTHGVNCTGSCSWKIYVKNGLVTWEIQQTDYPRTRPDLPNHEPRGCPRGASYSWYLYSANRLKYPLIRKRLIELWREALKQHSDPVLAWASIMNDPQKCLSYKQVRGRGGFIRSNWQELNQLIAAANVWTIKTYGPDRVAGFSPIPAMSMVSYAAGTRYLSLLGGTCLSFYDWYCDLPPASPMTWGEQTDVPESADWYNSSYIIAWGSNVPQTRTPDAHFFTEVRYKGTKTIAITPDYSEVAKLCDQWLAPKQGTDSALAMAMGHVILKEFHLDNPSDYFINYCRRYSDMPMLVMLEPRDDGSYVPGRMIRASDLVDGLGESNNPQWKTVAVNTAGELVVPNGSIGFRWGEKGKWNLESIAAGTETELSLTLLGQHDAVAGVAFPYFGGIENPHFRSVKHNPVLVRQLPVKNLTLVDGNTCPVVSVYDLVLANYGLDRGLEDENSAKDYAEIKPYTPAWGEQITGVPRQYIETIAREFADTAHKTHGRSMIILGAGVNHWYHMDMNYRGMINMLIFCGCVGQSGGGWAHYVGQEKLRPQTGWLPLAFALDWNRPPRQMNSTSFFYNHSSQWRYEKVSAQELLSPLADASKYSGHLIDFNVRAERMGWLPSAPQLGRNPLGIKAEADKAGLSPTEFTAQALKSGDLRMACEQPDSSSNHPRNLFVWRSNLLGSSGKGHEYMQKYLLGTESGIQGEELGASDGIKPEEVEWQTAAIEGKLDLLVTLDFRMSSTCLFSDIVLPTATWYEKDDMNTSDMHPFIHPLSAAVDPAWESRSDWEIYKGIAKAFSQVCVGHLGKETDVVLQPLLHDSPAELSQPCEVLDWRKGECDLIPGKTAPNIVAVERDYPATYERFTSLGPLMDKLGNGGKGISWNTQDEIDFLGKLNYTKRDGPAQGRPLIDTAIDASEVILALAPETNGHVAVKAWQALGEITGREHTHLALHKEDEKIRFRDIQAQPRKIISSPTWSGLESDHVSYNAGYTNVHELIPWRTLSGRQQLYQDHPWMRAFGESLVAYRPPIDTRSVSEMRQIPPNGFPEKALNFLTPHQKWGIHSTYSENLLMLTLSRGGPIVWISETDARELTIVDNDWVEVFNANGALTARAVVSQRVPPGMTMMYHAQERIMNIPGSEVTGMRGGIHNSVTRVCPKPTHMIGGYAQLAWGFNYYGTVGSNRDEFIMIRKMKNVNWLDDEGRDQVQEAKK | 6.1 ± 1 h | 5.33 ± 0.2 h | 6.53 ± 0.28 h | 6.11 ± 1.5 h | 5.8 ± 0.67 h | 2.8 ± 0.2 h | 6.25 ± 1.3 h | 11.5 ± 1.3 h | 5.956 ± 0.043 h | 12.43 ± 0.018 h | 5.7 ± 0.32 h | 11.4 ± 0.43 h
2 | MSKNERMVGISRRTLVKSTAIGSLALAAGGFSLPFTLRNAAAAVQQAREKVVWGACSVNCGSRCALRLHVKDNEVTWVETDNTGSDEYGNHQVRACLRGRSIRRRINHPDRLNYPMKRVGKRGEGKFERISWDEALDTIASSLKKTVEQYGNEAVYIQYSSGIVGGNMTRSSPSASAVKRLMNCYGGSLNQYGSYSTAQISCAMPYTYGSNDGNSTTDIENSKLVVMFGNNPAETRMSGGGITYLLEKAREKSNAKMIVIDPRYTDTAAGREDEWLPIRPGTDAALVAGIAWVLINENLVDQPFLDKYCVGYDEKTLPADAPKNGHYKAYILGEGDDKTAKTPQWASQITGIPEDRIIKLAREIGTAKPAYICQGWGPQRQANGELTARAIAMLPILTGNVGISGGNSGARESTYTITIERLPVLDNPVKTSISCFSWTDAIDHGPQMTAIRDGVRGKDKLDVPIKFIWNYAGNTLVNQHSDINKTHEILQDESKCEMIVVIENFMTSSAKYADILLPDLMTVEQEDIIPNDYAGNMGYLIFLQPVTSEKFERKPIYWILSEVAKRLGPDVYQKFTEGRTQEQWLQHLYAKMLAKDPALPSYDELKKMGIYKRKDPNGHFVAYKAFRDDPEANPLKTPSGKIEIYSSRLAEIARTWELEKDEVISPLPVYASTFEGWNSPERRTFPLQLFGFHYKSRTHSTYGNIDLLKAACRQEVWINPIDAQKRGIANGDMVRVFNHRGEVRLPAKVTPRILPGVSAMGQGAWHEANMSGDKIDHGGCVNTLTTLRPSPLAKGNPQHTNLVEIEKI | 5.78 h |  |  |  |  |  |  |  |  |  |  | 
3 | MSKNYHIAVLPGDGIGPEVMTQALKVLDAVRNRFAMRITTSHYDVGGAAIDNHGQPLPPATVEGCEQADAVLFGSVGGPKWEHLPPDQQPERGALLPLRKHFKLFSNLRPAKLYQGLEAFCPLRADIAANGFDILCVRELTGGIYFGQPKGREGSGQYEKAFDTEVYHRFEIERIARIAFESARKRRHKVTSIDKANVLQSSILWREIVNEIATEYPDVELAHMYIDNATMQLIKDPSQFDVLLCSNLFGDILSDECAMITGSMGMLPSASLNEQGFGLYEPAGGSAPDIAGKNIANPIAQILSLALLLRYSLDADDAACAIERAINRALEEGIRTGDLARGAAAVSTDEMGDIIARYVAEGV | 3.45 ± 0.8 h | 2.56 ± 0.42 h | 2.43 ± 0.12 h | 2.96 ± 0.089 h | 2.527 ± 0.018 h | 3.23 ± 0.31 h | 5.057 ± 0.042 h | 8.72 ± 1.7 h | 2.54 ± 0.19 h | 3.52 ± 0.11 h | 5.34 ± 0.7 h | 9.08 ± 0.2 h
4 | MSKQSQHVLIALPHPLLHLVSLGLVSFIFTLFSLELSQFGTQLAPLWFPTSIMMVAFYRHAGRMWPGIALSCSLGNIAASILLFSTSSLNMTWTTINIVEAVVGAVLLRKLLPWYNPLQNLADWLRLALGSAIVPPLLGGVLVVLLTPGDDPLRAFLIWVLSESIGALALVPLGLLFKPHYLLRHRNPRLLFESLLTLAITLTLSWLSMLYLPWPFTFIIVLLMWSAVRLPRMEAFLIFLTTVMMVSLMMAADPSLLATPRTYLMSHMPWLPFLLILLPANIMTMVMYAFRAERKHISESETHFRNAMEYSAIGMALVGTEGQWLQTNKALCQFLGYSQEELRGLTFQQLTWPEDLNKDLQQVEKLISGEINTYSMEKRYYNRNGDVVWALLAVSLVRHTDGTPLYFIAQIEDINELKRTEQVNQQLMERITLANEAGGIGIWEWELKPNIFSWDKRMFELYEIPPHIKPNWQVWYECVLPEDRQHAEKVIRDSLQSRSPFKLEFRITVKDGIRHIRALANRVLNKEGEVERLLGINMDMTEVKQLNEALFQEKERLHITLDSIGEAVVCIDMAMKITFMNPVAEKMSGWTQEEALGVPLLTVLHITFGDNGPLMENIYSADTSRSAIEQDVVLHCRSGGSYDVHYSITPLSTLDGSNIGSVLVIQDVTESRKMLRQLSYSASHDALTHLANRASFEKQLRILLQTVNSTHQRHALVFIDLDRFKAVNDSAGHAAGDALLRELASLMLSMLRSSDVLARLGGDEFGLLLPDCNVESARFIATRIISAVNDYHFIWEGRVHRVGASAGITLIDDNNHQAAEVMSQADIACYASKNGGRGRVTVYEPQQAAAHSERAAMSLDEQWRMIKENQLMMLAHGVASPRIPEARNLWLISLKLWSCEGEIIDEQTFRRSFSDPALSHALDRRVFHEFFQQAAKAVASKGISISLPLSVAGLSSATLVNDLLEQLENSPLPPRLLHLIIPAEAILDHAESVQKLRLAGCRIVLSQVGRDLQIFNSLKANMADYLLLDGELCANVQGNLMDEMLITIIQGHAQRLGMKTIAGPVVLPLVMDTLSGIGVDLIYGEVIADAQPLDLLVNSSYFAIN | 4.93 ± 0.2 h |  |  |  |  |  |  | 9.36 h |  |  | 1.53 h | 
5 | MSKRRYLTGKEVQAMMQAVCYGATGARDYCLILLAYRHGMRISELLDLHYQDLDLNEGRINIRRLKNGFSTVHPLRFDEREAVERWTQERANWKGADRTDAIFISRRGSRLSRQQAYRIIRDAGIEAGTVTQTHPHMLRHACGYELAERGADTRLIQDYLGHRNIRHTVRYTASNAARFAGLWERNNLINEKLKREEV [P0ADH7] | 4.85 ± 0.3 h |  |  |  | 1.18 h | 0.333 h |  |  |  |  |  | 
6 | MSKRTFAVILTLLCSFCIGQALAGGIVLQRTRVIYDASRKEAALPVANKGAETPYLLQSWVDNIDGKSRAPFIITPPLFRLEAGDDSSLRIIKTADNLPENKESLFYINVRAIPAKKKSDDVNANELTLVFKTRIKMFYRPAHLKGRVNDAWKSLEFKRSDHSLNIYNPTEYYVVFAGLAVDKTDLTSKIEYIAPGEHKQLPLPASGGKNVKWAAINDYGGSSGTETRPLQ |  |  | 6.17 h |  |  |  |  |  |  |  |  | 
7 | MSKSENLYSAARELIPGGVNSPVRAFTGVGGTPLFIEKADGAYLYDVDGKAYIDYVGSWGPMVLGHNHPAIRNAVIEAAERGLSFGAPTEMEVKMAQLVTELVPTMDMVRMVNSGTEATMSAIRLARGFTGRDKIIKFEGCYHGHADCLLVKAGSGALTLGQPNSPGVPADFAKYTLTCTYNDLASVRAAFEQYPQEIACIIVEPVAGNMNCVPPLPEFLPGLRALCDEFGALLIIDEVMTGFRVALAGAQDYYGVVPDLTCLGKIIGGGMPVGAFGGRRDVMDALAPTGPVYQAGTLSGNPIAMAAGFACLNEVAQPGVHETLDELTTRLAEGLLEAAEEAGIPLVVNHVGGMFGIFFTDAESVTCYQDVMACDVERFKRFFHMMLDEGVYLAPSAFEAGFMSVAHSMEDINNTIDAARRVFAKL | 6.35 ± 2.3 h | 4.99 ± 0.35 h | 5 ± 0.21 h | 5.33 ± 0.43 h | 3.93 ± 0.1 h | 3.45 ± 0.48 h | 7.43 ± 0.21 h | 11.3 ± 1.3 h | 4.57 ± 0.2 h | 7.897 ± 0.015 h | 5.51 ± 0.059 h | 12.6 ± 0.035 h
8 | MSKSLQKPTILNVETVARSRLFTVESVDLEFSNGVRRVYERMRPTNREAVMIVPIVDDHLILIREYAVGTESYELGFSKGLIDPGESVYEAANRELKEEVGFGANDLTFLKKLSMAPSYFSSKMNIVVAQDLYPESLEGDEPEPLPQVRWPLAHMMDLLEDPDFNEARNVSALFLVREWLKGQGRV | 4.86 ± 0.33 h | 4.8 ± 1.8 h | 3.56 ± 0.2 h | 4.58 ± 0.89 h | 3.4 ± 0.13 h | 3.39 ± 0.13 h | 5.24 ± 0.67 h | 9.26 ± 1.9 h | 3.9 ± 0.67 h | 5.391 ± 0.048 h | 5.95 ± 0.12 h | 11.5 ± 1 h
9 | MSKSRLTVFSFVRRFLLRLMVVLAVFWGGGIALFSVAPVPFSAVMVERQVSAWLHGNFRYVAHSDWVSMDQISPWMGLAVIAAEDQKFPEHWGFDVASIEKALAHNERNENRIRGASTISQQTAKNLFLWDGRSWVRKGLEAGLTLGIETVWSKKRILTVYLNIAEFGDGVFGVEAAAQRYFHKPASKLTRSEAALLAAVLPNPLRFKVSSPSGYVRSRQAWILRQMYQLGGEPFMQQHQLD | 7.03 h | 6.44 ± 0.48 h | 6.04 ± 0.026 h |  | 5.87 ± 0.34 h | 3.16 h |  | 10.8 ± 1.2 h | 6.11 ± 0.23 h | 12.3 ± 1.5 h | 6.23 ± 0.25 h | 12.8 ± 0.19 h
10 | MSKTFARSSLCALSMTIMTAHAAEPPTNLDKPEGRLDIIAWPGYIERGQTDKQYDWVTQFEKETGCAVNVKTAATSDEMVSLMTKGGYDLVTASGDASLRLIMGKRVQPINTALIPNWKTLDPRVVKGDWFNVGGKVYGTPYQWGPNLLMYNTKTFPTPPDSWQVVFVEQNLPDGKSNKGRVQAYDGPIYIADAALFVKATQPQLGISDPYQLTEEQYQAVLKVLRAQHSLIHRYWHDTTVQMSDFKNEGVVASSAWPYQANALKAEGQPVATVFPKEGVTGWADTTMLHSEAKHPVCAYKWMNWSLTPKVQGDVAAWFGSLPVVPEGCKASPLLGEKGCETNGFNYFDKIAFWKTPIAEGGKFVPYSRWTQDYIAIMGGR | 5.24 ± 0.43 h | 5.67 ± 0.8 h | 7.1 ± 0.7 h | 7.128 ± 0.054 h | 5.71 ± 0.53 h | 3.27 ± 0.29 h | 7.18 ± 0.46 h | 13.3 ± 0.99 h | 6.37 ± 0.074 h | 14.3 ± 0.99 h | 6.9 ± 1 h | 13.8 ± 0.29 h
